Non-standard residues stand in square brackets, D forms with d.
Molecular target: α-synuclein (UniProt P37840 1-140)
Test: cell-based or functional assay
Further: test concentration or dose not given here.

Row | Binder | % decrease in ThT fluorescence [%] | % decrease in rate of aggregation [%] | % increase in Lag phase [%]
1 | Ac-[dE][dK][dY][dS][dV][dL][dI]-NH2 (SMILES CC[C@@H](C)[C@@H](NC(=O)[C@@H](CC(C)C)NC(=O)[C@H](NC(=O)[C@@H](CO)NC(=O)[C@@H](Cc1ccc(O)cc1)NC(=O)[C@@H](CCCCN)NC(=O)[C@@H](CCC(=O)O)NC(C)=O)C(C)C)C(N)=O) [ZP-0213] | 25.6 | 12.9 | 29.4
2 | H-[dQ][dY][dT][dV][dL][dI]-NH2 (SMILES CC[C@@H](C)[C@@H](NC(=O)[C@@H](CC(C)C)NC(=O)[C@H](NC(=O)[C@H](NC(=O)[C@@H](Cc1ccc(O)cc1)NC(=O)[C@H](N)CCC(N)=O)[C@H](C)O)C(C)C)C(N)=O) [ZP-0221] | 24.7 | 22.8 | -22.4
3 | Ac-[dR][dY][dS][dV][dL][dI]-NH2 (SMILES CC[C@@H](C)[C@@H](NC(=O)[C@@H](CC(C)C)NC(=O)[C@H](NC(=O)[C@@H](CO)NC(=O)[C@@H](Cc1ccc(O)cc1)NC(=O)[C@@H](CCCNC(=N)N)NC(C)=O)C(C)C)C(N)=O) [ZP-0212] | 51.1 | 44.9 | -14.4
4 | Ac-[dD][dR][dY][dS][dV][dL][dI]-NH2 (SMILES CC[C@@H](C)[C@@H](NC(=O)[C@@H](CC(C)C)NC(=O)[C@H](NC(=O)[C@@H](CO)NC(=O)[C@@H](Cc1ccc(O)cc1)NC(=O)[C@@H](CCCNC(=N)N)NC(=O)[C@@H](CC(=O)O)NC(C)=O)C(C)C)C(N)=O) [ZP-0214] | 20.4 | 4.8 | -12.6
5 | H-[dQ][dY][dS][dV][dL][dI]-NH2 (SMILES CC[C@@H](C)[C@@H](NC(=O)[C@@H](CC(C)C)NC(=O)[C@H](NC(=O)[C@@H](CO)NC(=O)[C@@H](Cc1ccc(O)cc1)NC(=O)[C@H](N)CCC(N)=O)C(C)C)C(N)=O) [ZP-0215] | 27.6 | 17.5 | 3.1

The next lines start with the values.

Row | % decrease in ThT fluorescence [%] | % decrease in rate of aggregation [%] | % increase in Lag phase [%] | Binder
6 | 17.8 | 24.3 | 33.5 | H-[dQ][dY][dS][dV][dL][dV]-NH2 (SMILES CC(C)C[C@@H](NC(=O)[C@H](NC(=O)[C@@H](CO)NC(=O)[C@@H](Cc1ccc(O)cc1)NC(=O)[C@H](N)CCC(N)=O)C(C)C)C(=O)N[C@@H](C(N)=O)C(C)C) [ZP-0229]
7 | 40.8 | 46.2 | 38.2 | H-[dP][dY][dS][dV][dL][dI]-NH2 (SMILES CC[C@@H](C)[C@@H](NC(=O)[C@@H](CC(C)C)NC(=O)[C@H](NC(=O)[C@@H](CO)NC(=O)[C@@H](Cc1ccc(O)cc1)NC(=O)[C@H]1CCCN1)C(C)C)C(N)=O) [ZP-0228]
8 | 42.3 | 34.3 | 7.7 | H-[dQ][dY][dK][dV][dL][dI]-NH2 (SMILES CC[C@@H](C)[C@@H](NC(=O)[C@@H](CC(C)C)NC(=O)[C@H](NC(=O)[C@@H](CCCCN)NC(=O)[C@@H](Cc1ccc(O)cc1)NC(=O)[C@H](N)CCC(N)=O)C(C)C)C(N)=O) [ZP-0222]
